Test results published in PMC2586147.

Molecular target: K401-BIO-H6 R210K (Drosophila) (UniProt P17210)
Assay: AUC

stoichiometry N	Substance
2	K401 (from UniProt P17210 1-401) (domain or fragment)
2	K401-BIO-H6 R210K (from UniProt P17210 1-401) (domain or fragment)
